Test results taken from the RNAGym collection of RNA variant scans (doi:10.1073/pnas.2313332121).
This sample holds only a part of the variants without activity.

B1: TPR 5TU (parent)
chain: GGAUCUUCUCGAUCUAACAAAAAAGACAAAUCUGCCACAAAGCUUGAGAGCAUCUUCGGAUGCAGAGGCGGCAGCCUUCGGUGGCGCGAUAGCGCCAACGUUCUCAACUAUGACACGCAAAACGCGUGCUCCGUUGAAUGGAGUUUAUCAUG

Variants of: B1
Test: polymerase ribozyme fitness, log enrichment relative to wild type (log ratio); higher = more active; in vitro selection for triplet polymerase activity
Method in brief: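 Each subunit of a heterodimeric triplet polymerase ribozyme was represented by a PCR-built, transcribed mutant library that underwent triplicate single-round in vitro selection with frozen incubation at −7 °C. Extended constructs were recovered by gel excision, streptavidin-bead capture and RT-PCR, and Illumina sequencing of input and output libraries kept genotypes with ≥10 input reads and ≥1 read per output. Fitness is the logarithm of genotype enrichment relative to wild-type enrichment, from inverse-variance-weighted replicate averages, with a logarithm base of 2.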

Variant	polymerase ribozyme fitness (log ratio)
G84C	-1.76
G88A G92A C132G U148A	≤ -4.2
G88U C95G C125U	≤ -4.2
G88U C95U A121U A122G G124A	≤ -4.2
G84U C99U G141C	-2.46
C87A C103A C114U	≤ -4.2
C87U A120U C123G	-1.06
C85U C95G	-2.03
C87A G117C U146C	≤ -4.2
G88U A115C A120G	-3.89
C87A A91G C103U U135C	≤ -4.2
C85A C95A	-0.893
C85G C132G	≤ -4.2
C87U U104G	-0.825
G84U C96U A122G C149G	≤ -4.2
C85U G94C G143A	-1.78
A89U C96U A138G U146G	≤ -4.2
C85G G100A	≤ -4.2
C87U C105U	-2.21
U90C U102C A107U	≤ -4.2
G86C G117A	-1.84

Variant	polymerase ribozyme fitness (log ratio)
G84A G133C	-1.78
G88U C105U	-3.83
G84A G92C	-3.25
C85A C125G	-1.13
C85U C96A C116G	-0.604
G88C G141C	-3.84
C85U G88A U151G	≤ -4.2
C87U A89C U139G	-2.56
C85A G117C C118A A147U	-0.0649
C85A G136A	-1.05
G84A U148G	-3.25
G86A C105G A138U	≤ -4.2
C85U U127C A137U	≤ -4.2
A89G G92C A97C C114U	-3.82
C85G C93A	≤ -4.2
C87U G136C	-3.65
C85U A89U A106G C125G	-1.15
C85G U139A	-4.19
A89G U134C	-0.372
G88A C116U	-4.05
C85U G140U	-2.51

Variant	polymerase ribozyme fitness (log ratio)
C87G G141U	-3.61
G86A U148C	-1.5
C85G C118A A142U	-2.93
C85G C96U A113U	-3.8
G88A	-3.75
G88C	-4.19
G88U	-3.89
C85G C129G	-4.11
C85G C125A U144A	-3.57
C85U C93U U134G	-4.16
C85A A121U U127C	-1.47
G88U C95G	-3.65
G84U A106G U109A A121U C131A G141A U145A	≤ -4.2
C85U U127G	-3.46
C87A U127G	≤ -4.2
C87U U127A	-3.2
C85U C131U G143U	-2.54
G86A A122U	-1.33
G86A G141A	-0.545
C87G C99U C116G	-3.37
G86U G88A	≤ -4.2

Variant	polymerase ribozyme fitness (log ratio)
G86A C114U	-2.15
G86A C114A	-4.1
C87U A89G C103U A115C C123U G143U	≤ -4.2
A89G C95A G136U	-3.75
G84U C118U	-1.91
C85A C103A A147G	≤ -4.2
C85G A122U	-1.53
A89U A97U U101A A107C A121C G140U U148G	≤ -4.2
C85U C99U	-2.35
C85U C99G	-1.07
A89C G92U	-1.92
C85U A150U G152A	-0.481
G84A U127C	-1.91
C85G C118U C132U	-3.11
C87A C93G C108G	≤ -4.2
G86A G100A	-3.89
G84U U148A	≤ -4.2
C85A G143C	-3.01
C85A G143U	-2.37
C87G U90C	-4.07
C85A C96U A119C	-0.783
